Reference: patent US20220112288A1 (published 2022)
Substitutions are numbered along the chain they refer to. One block for each binder: values may come before it.

Experiments:
[1] = biological target: T1, Recombinant human CD4 (R&D Systems, Cat. 10327-CD) (human, UniProt P01730 26-390, limits assumed); test: BLI (Octet Red384), non-clonal supernatant on AMC sensor, 100 nM human CD4
T1 construct: Bought soluble recombinant protein used as analyte at 100 nM; also called huCD4

[2] = biological target: T1, Recombinant human CD4 (R&D Systems, …); test: BLI (Octet Red384), non-clonal supernatant on AMC sensor, 100 nM human CD4, 1:1 local fit;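 also: hybridoma antibodies captured from supernatant, single CD4 concentration as analyte, association and dissociation phases fitted together, giving single-point kinetic estimates per supernatant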
human CD4 on human PBMCs = biological target: T2, human CD4 on human PBMCs (human, UniProt P01730 26-458); test: FACS, clonal hybridoma supernatant on human PBMCs
T2 construct: whole, on cells; the CD4-positive gate was set with the control antibodies OKT4 and RPA-T4; also called hCD4

B2: 75110_08A13A (antibody, V domains shown)
VH: EVQLVESGGGLVQPGGSLRLSCAASGFIFSSYWMSWVRQAPGKGLEWVANIKQDGSEKYYMDSVKGRFTISRDNAKNSLYLQMNSLRAEDTAVYYCARDNSYYYYGMDVWGQGTTVTVSS
VL: AIQMTQSPSSLSASVGDRVTITCRASQGIRDDLGWYQQKPGKAPKLLIFAASSLQSGVPSSFSGSGSGTDFTLTISSLQPEDFATYYCLHHYNYPYTFGQGTKLEIK
notes: Non-clonal AlivaMab Mouse Kappa hybridoma supernatant, captured by anti-mouse IgG Fc (human V regions, mouse Fc)
Response [1]: 0.35
Kd [2]: 4.4 nM
koff [2]: 0.001 s⁻¹
kon [2]: 230000 M⁻¹ s⁻¹

B3: 75110_03I08A (antibody, V domains shown)
VH: QVQLQESGPGLVKPSETLSLTCTVSGGSISSYYWSWIRQPPGKGLEWIGYIYYSGSTNYNPSLKSRVTISVDTSKNQFSLKLSSVTAADTAVYYCAREGEQWFYGLDVWGQGTTVTVSS
VL: EIVLTQSPGTLSLSPGERATLSCRASQSVSSTYLAWYQQKPGQAPRLLIYGSSSRATGIPDRFSGSGSGTDFTLTISRLEPEDFAVYYCQQYGNSFPITFGQGTRLEIK
notes: as for B2
Response [1]: 0.07
Kd [2]: < 0.001 nM
koff [2]: < 1e-07 s⁻¹
kon [2]: 37000 M⁻¹ s⁻¹

B4: 75110_05A11A (antibody, V domains shown)
VH: EVQLVESGGGLVKPGGSLTLSCAASGFTFSNTWMSWVRQAPGKGLEWVGRIKSKIDGGTTDYAAPVKGRFTISRDDSKNTLYLQMNSLKTEDTAVYYCTTSGTYSSGWGLFDYWGQGTLVTVSS
VL: DIQMTQSPSSLSASVGDRVTITCQASQDISNYLNWYQQKPGKAPKLLIYDTSNLEAGVPSRFSGSGSGTHFTLTISSLQPEDIATYYCQQYDNLPFTFGGGTRVEIK
notes: as for B2
Response [1]: 0.15
Kd [2]: 3.2 nM
koff [2]: 0.00055 s⁻¹
kon [2]: 170000 M⁻¹ s⁻¹

B6: 75110_04G02A (antibody, V domains shown)
VH: not shown
VL: DIVMTQSPDSLAVSLGERATINCKSSQSVLYSSNNKNYLAWYQQKPGQPPKLLFYWASARESGVPDRFSGSGSGTDFTLTISSLQAEDVALYYCQQYFGSFPTFGQGTKLEIK
notes: as for B2
Response [1]: 0.21
Kd [2]: 0.76 nM
koff [2]: 0.00017 s⁻¹
kon [2]: 220000 M⁻¹ s⁻¹

B7: 75110_03I23A (antibody, V domains shown)
VH: QVQLQESGPGLVKPSETLSLTCTASGGSITSYYWNWIRQPAGKGLEWIGRIYTSGSTNYNPSLKSRVTMSVDTSKNQFSLKLSSVTAADTAVYYCARDPGYSDAFNIWGQGTMVTVSS
VL: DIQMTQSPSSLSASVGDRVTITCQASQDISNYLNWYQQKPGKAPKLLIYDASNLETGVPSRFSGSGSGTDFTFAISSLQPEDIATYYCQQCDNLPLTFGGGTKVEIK
notes: as for B2
Response [1]: 0.18
Kd [2]: 8.6 nM
koff [2]: 0.0012 s⁻¹
kon [2]: 140000 M⁻¹ s⁻¹

B13: 75110_01C18A (antibody, V domains shown)
VH: EVQLVESGGGLIQPGGSLRLSCAASGFTVSSNYMNWVRQAPGKGLEWVSVIYAGDNTYSADSVKGRFTISRDNSNNTLCLQMNSLRAEDTAVYYCAREGGTTGAFDIWGQGTMVTVSS
VL: DIQMTQSPSSVSASVGDRVTITCRASQGINSWLAWYQQKPGKAPKLLIYAASSLQSGVPSRFSGSGSGTDFTLTISSLQPEDFATYYCQQGNSFPYTFGQGTKLEIK
notes: as for B2
Response [1]: 0.25
Kd [2]: 16 nM
koff [2]: 0.0013 s⁻¹
kon [2]: 86000 M⁻¹ s⁻¹

B15: 75110_04D20A (antibody, V domains shown)
VH: QVQLQESGPGLVKPSETLSLTCTVSNGSISDYYWSWIRQPAGKGLEWIGRIYTSGSTNYNPSLKSRITMSVDTSKNQFSLELSSVTAADTAVYYCARELERYYFYGVDVWGQGTTVTVSS
VL: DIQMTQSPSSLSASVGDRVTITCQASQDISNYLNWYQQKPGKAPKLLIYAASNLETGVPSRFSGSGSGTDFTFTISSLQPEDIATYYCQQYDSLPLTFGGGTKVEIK
notes: as for B2
Response [1]: 0.2
Kd [2]: 0.88 nM
koff [2]: 0.00013 s⁻¹
kon [2]: 150000 M⁻¹ s⁻¹

B19: 75110_02I18A (antibody, V domains shown)
VH: EVQVVESGGGLVQPGGSLRLSCAASGFTFSSYDMHWVRQATGKGLEWVSTIGTAGDTYYPGSVKGRFTISRENAKNSLYLQMNSLRAGDTAVYYCARGGYYYYGMDVWGQGTTVTVSS
VL: EIVLTQSPGTLSLSPGERATLSCRASQSVSSSYLAWYQQKPGQSPRLLIHGASSRATGIPDRVSGSGSGTDFTLTISRLEPEDFAVYYCQQYGSSPFTFGPGTKVDIK
notes: as for B2
Response [1]: 0.16
Kd [2]: 9 nM
koff [2]: 0.0033 s⁻¹
kon [2]: 370000 M⁻¹ s⁻¹

B22: 75110_01L08A (antibody, V domains shown)
VH: QVQLQESGPGLVKPSETLSLTCTVSGGSISHYYWSWIRQPPGKGLEWIGYIHYSGTTNYNPSLKSRVTISVDTSKNQLSLKLRSVTAADTAVYYCARDQGFSSGGMDVWGQGTTVTVSS
VL: not shown
notes: as for B2
Response [1]: 0.09
Kd [2]: 4.1 nM
koff [2]: 0.00037 s⁻¹
kon [2]: 91000 M⁻¹ s⁻¹

Now from value to binder:

Response [1]: 0.14
Kd [2]: 17 nM
koff [2]: 0.0022 s⁻¹
kon [2]: 130000 M⁻¹ s⁻¹
B1: 75110_02K11A (antibody, V domains shown)
VH: QVQLQESGPGLVKPSQTLSLTCTVSGGSISSGFYYWTWIRQHPGKGLEWIGYISYSGNTYYNPSFKSRLTISVDTSKSQFSLKLSSVTAADTAVYYCARDRPSNFDAFDIWGQGTMVTVSS
VL: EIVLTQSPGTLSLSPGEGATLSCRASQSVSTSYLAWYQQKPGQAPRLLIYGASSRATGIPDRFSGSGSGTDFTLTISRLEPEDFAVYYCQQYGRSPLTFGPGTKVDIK
notes: as for B2

Response [1]: 0.16
Kd [2]: 9 nM
koff [2]: 0.00097 s⁻¹
kon [2]: 110000 M⁻¹ s⁻¹
B5: 75110_04H17A (antibody, V domains shown)
VH: QVQLQESGPGLVKPSETLSLTCTVSGGSISTYYWSWIRQSAGKGLEWIGRIYTSERPNYNPSLKSRVTMSVDTSKNQFSLKLNSVSAADTAVYYCARELERPYYYGMDVWGQGTTVTVSS
VL: B4 VL with I2V, D17G, D50Y, T51A, A56T, H70D, L73F, I83F, F96L, R103K
notes: as for B2

Response [1]: 0.1
Kd [2]: < 0.001 nM
koff [2]: < 1e-07 s⁻¹
kon [2]: 140000 M⁻¹ s⁻¹
B8: 75110_07N04A (antibody, V domains shown)
VH: B7 VH with T23S, A24V, G27V, I29S, Y32F, N35S, E46D, N106A
VL: not shown
notes: as for B2

Response [1]: 0.14
Kd [2]: < 0.001 nM
koff [2]: < 1e-07 s⁻¹
kon [2]: 77000 M⁻¹ s⁻¹
B9: 75110_07J24A (antibody, V domains shown)
VH: QAQLQESGPGLVKPSETLSLTCTVSGGSISSYYYNWIRQPAGKGLEWIGRIYTSGRTDYNPSLKSRVTMSADTSKNQFSLKLSSVTAADTAVYYCARDEGPTDAFDIWGQGTMVTVSS
VL: DIVMTQTPLSLPVTPGEPASISCRSSQSLLDSDDGNTYLDWYLQKPGQSPHLLIYTLSYRASGVPDRFSGSGSGSDFTLKISRVEAEDVGVYYCMQRIEFPFTFGPGTKVDIK
notes: as for B2

Response [1]: 0.24
Kd [2]: 0.95 nM
koff [2]: 0.00013 s⁻¹
kon [2]: 140000 M⁻¹ s⁻¹
B10: 75110_05E05A (antibody, V domains shown)
VH: QVQLQESGPGLVKPSETLSLTCTVSGGSIGSYYWSWIRQPAGKGLEWIGRIYTSGSTNYNPSLKSRVTMSFDTSKNQFSLKLNSVTAADTAVYYCATDGGVGDSLDYWGQGTLVTVSS
VL: B9 VL with H51Q, S75T, R97H
notes: as for B2

% CD4 Stain (human CD4 on human PBMCs): 28.3%
gMFI of CD4+ (human CD4 on human PBMCs): 58500 gMFI
B11: 75110_14P08A (antibody, V domains shown)
VH: QVQLQESGPGLVKSSETLSLTCTDSGDSIRSYYWNWIRQPAGKGLEWIGRIYASGSTNYNPSLKSRVIMSADTSKNRFSLKLSSVTAADTAVYYCARDGGVGDSLDYWGQGTLVTVSS
VL: B9 VL with H51Q, S75T
notes: Tested as clonal hybridoma supernatant from AlivaMab Mouse Kappa mice: human variable regions, human kappa, mouse Fc

Response [1]: 0.33
Kd [2]: 7.4 nM
koff [2]: 0.0012 s⁻¹
kon [2]: 160000 M⁻¹ s⁻¹
B12: 75110_05E13A (antibody, V domains shown)
VH: EVQLVESGGDLVKPGGSLRLSCAASGFSFSNAWMSWVRQAPGKGLEWVGRVESKTDGGTTDYAAPVKDRFTISRDDSKYTLYLQMNSLKTEDSAVYYCTIGGGFGLELYGFFDYWGQGTLVTVSS
VL: DIQMTQSPSTLSASVGDRVTITCRASQSISSWLAWYQQKPGKAPMLLIYKASSLESGVPSRFSGSGSGTEFTLTISSLQPDDFATYYCLQYNSYYTFGQGTKLEIK
notes: as for B2

Response [1]: 0.18
Kd [2]: 20 nM
koff [2]: 0.0042 s⁻¹
kon [2]: 210000 M⁻¹ s⁻¹
B14: 75110_02E22A (antibody, V domains shown)
VH: B15 VH with N26G, D31S, Y32F, I67V, E81K, R101K, Y102R, Y103N, F104Y, V107M
VL: DIQMTQSPSSLSASVGDRVTITCQASHDISNYLNWYQQKPGKAPKLLIFDASTLETGVPSRFSGSGSGTYFTFTIRSLQPEDIATYYCQQYDSLPLTFGGGTKVEIK
notes: as for B2

% CD4 Stain (human CD4 on human PBMCs): 32.5%
gMFI of CD4+ (human CD4 on human PBMCs): 265000 gMFI
B16: 75110_14N19A (antibody, V domains shown)
VH: B5 VH with T31R, S40P, Y52C, R56N, S62A, N83S, S86T, P102L, Y103N
VL: DIQMTQFPSSLSASVGDRVTITCQASQDISNYLNWYQQKPGKAPKLLIYDASNLESGVPSRFSGRGSGTDFTFTISSLQPEDFATFYCQQYDTLPITFGQGTRLEIK
notes: as for B11

% CD4 Stain (human CD4 on human PBMCs): 33.2%
gMFI of CD4+ (human CD4 on human PBMCs): 298000 gMFI
B17: 75110_14I16A (antibody, V domains shown)
VH: B15 VH with D31S, P40S, I67V, S70L, E81K, E98D, L99R, R101D, F104Y, V107M
VL: B14 VL with I48L, F49Y, D50Y, T53N, Y70D, R76T, A84G, Y87S, S93N
notes: Tested as clonal hybridoma supernatant from AlivaMab Mouse Kappa mice: human variable regions, human kappa, mouse Fc; also called 75110_14116A

Response [1]: 0.14
Kd [2]: 6.8 nM
koff [2]: 0.0019 s⁻¹
kon [2]: 280000 M⁻¹ s⁻¹
B18: 75110_06K03A (antibody, V domains shown)
VH: B15 VH with N26G, D31T, Y52N, N58T, I67V, E81K, F104Y, V107M
VL: B14 VL with H27Q, F49Y, D50Y, T53I, Y70D, R76S
notes: as for B2

Response [1]: 0.11
Kd [2]: 4.5 nM
koff [2]: 0.0031 s⁻¹
kon [2]: 700000 M⁻¹ s⁻¹
B20: 75110_08K12A (antibody, V domains shown)
VH: B19 VH with V4L, K75E, V92L, G99D
VL: B19 VL with S32T, S44A, H50Y, S54N, V63F, Y92F, S94T
notes: as for B2

Response [1]: 0.18
Kd [2]: 0.032 nM
koff [2]: 4.4e-06 s⁻¹
kon [2]: 140000 M⁻¹ s⁻¹
B21: 75110_05F19A (antibody, V domains shown)
VH: B19 VH with V4L, S31N, M34V, A40P, Y101D, M105L
VL: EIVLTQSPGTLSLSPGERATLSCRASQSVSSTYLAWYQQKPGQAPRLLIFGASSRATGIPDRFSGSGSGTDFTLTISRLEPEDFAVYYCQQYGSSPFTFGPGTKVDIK
notes: as for B2
